US20260207715A1, “KIT FOR COMBINATION THERAPY OF TUMOR DISEASES AND/OR INFECTIONS” (priority 2022, published 2026)
“Also recorded” adds a separate entry of the source.

Columns and labels:
NIH3T3 cells spheroids = assay: Spheroid formation of NIH3T3 cells, propidium iodide staining; assay type: cell-based, murine; details: 24 hours
Procedure: In this example, immortalized murine fibroblast NIH3T3 cells were specifically chosen for generating spheroids due to their ability to produce a consistently uniform, rounded, and tightly cohesive structure. […] To achieve this, NIH3T3 cells (150,000 cells/mL) were seeded on non-tissue culture treated petri dish coverslips in 10 μL drops. Subsequently, they were treated with camptothecin and compound 4, the latter being activated both with and without H2O2, and were incubated upside down for 24 hours at 37° C. under 5% CO2. Following the incubation period, the spheroids were stained with propidium iodide (0.003 μg per 10,000 cells) for 3 minutes at room temperature. The analysis of these spheroids was conducted using an Axio Observer.Z1 microscope equipped with an A-Plan 10×/0.25 Ph1 objective (Zeiss). The images were recorded with a phase-contrast channel, and a 43 DsRed Reflector (λex=538-562 nm λem=570-640 nm) with a mercury vapor short-arc lamp.

ROS (H2O2) production = assay: Enzymatic activity, production of ROS (H2O2), spectrofluorimetric experimental setup; assay type: biochemical; details: for enzymatically active: fusion protein; for enzymatic activity, production of ROS (H2O2): spectrofluorimetric experimental setup
Text: The proteins APIT, the fusion protein zHER2:342-APIT and zHER2:342(K4R/K7A/K27R/K49R/K50A/K58A)-APIT were successfully recombinantly produced and purified. The proteins were verified for identity and purity by mass spectrometry and high-performance liquid chromatography (HPLC) (see FIGS. 3 and 4). Subsequently, both proteins were compared with respect to their enzymatic activity, in particular the production of ROS (H2O2) via a spectrofluorimetric experimental setup. The activity of both species is very similar: • APIT: 80 U/mg, • zHER2:342-APIT: 70 U/mg, • zHER2:342(K4R/K7A/K27R/K49R/K50A/K58A)-APIT: 70 U/mg.

[1] = tested on: HER2-negative cells (MDA-MB-231); assay: Cell-based HER-2 binding assay on fixed HER2-negative cells (negative control); details: MDA-MB-231, fixed cells, fluorescent dye labeled protein
Procedure: (§1) Shown are results of cell culture experiments to confirm the selective HER2 binding of the fusion proteins. The fusion proteins zHER2:342-APIT and zHER2:342(K4R/K7A/K27R/K49R/K50A/K58A)-APIT were labeled with fluorescent dye and probed for HER2 binding on fixed cells. Cell nuclei were stained with Hoechst33342.
Right panels: HER2-negative cells (MDA-MB-231).
(§2) HER2 positive BT-474 (ACC 64), adherent cells were cultured in RPMI 1640 containing 20% (v/v) FBS, MEM non-essential amino acids, 1 mM Pyruvate, 10 μg/ml human insulin. HER2-negative MDA-MB-231 (ACC 732) adherent cells were cultured in Leibowitz' L15, 20% FBS. Cells were cultured from frozen stocks and passaged two times prior to the assay. Cells were incubated at 37° C., 5% CO2 humidified. At a confluency of 80% cell passaging was performed by trypsination using 0.25% (w/v) trypsin/0.2% (w/v) EDTA. Cells were seeded at 10 k cells/well on sterilized degreased 4%-gelatin coated cover slides ([…]) in 24-well plates and grown over night in the incubator. Cells were washed with PBS and fixated with freshly made 4% (w/v) paraformaldehyde solution for 30 min. […] Fluorescence signal was imaged using a ZEISS motorized Axio ZI observer fluorescence microscope. Images were analyzed and processed using Zeiss Zen Pro software.

[2] = biological target: T1, HER2 receptor on HER2-positive cells (BT474 cell line) (Homo sapiens, UniProt P04626); assay: Cell-based HER-2 binding assay on fixed HER2-positive cells; details: fluorescent dye labeled protein
T1 construct: host or cells: BT-474 (HER2-positive breast cancer cell line), fixed with 4% paraformaldehyde
Text: as §1
Left panels: HER2-positive cells (BT474 cell line). Here, the fluorescent dye labeled fusion proteins bind to the HER2 receptor located on the cell membrane.
as §2

HER2-positive tumor = assay: Tumor targeting and biodistribution in mice with HER2-positive and HER2-negative tumor; assay type: in vivo; details: six hours after exposure, NIR-labelled protein
Procedure: Tumor targeting and biodistribution of (A) zHER2-APIT-NIR and (B) APIT-NIR in mice with HER2-negative tumor (black) and HER2-positive tumor (gray); (whiskers indicate 10-90% percentile values, line in the box is the median; significance was tested with the Mann-Whitney U test, *p<0.05 was considered statistically different; n.s.=not significant; n=6).
Labelling of 1 eq protein was performed with either 6 eq of AlexaFluor680™-maleimide (NIR) or 10 eq of TexasRed-maleimide in PBS containing 50 mM TCEP pH 7.4 at a protein concentration of 1.0 mg/mL overnight. Reaction mixture was purified via HiTrap Q HP using 50 mM Tris pH 8.0 (A) and 50 mM Tris 1 M NaCl pH 8.0 (B) with following method: 30% B for 45 CV, 30-100% B in 30 CV. The eluent was dialyzed in PBS. The degree of label (DOL) was determined according to the manufacturer's instructions using extinctions coefficient of 1.539 mLmg-1 cm-1 for APIT.

Molecule | effect on spheroids (NIH3T3 cells spheroids) | enzymatically active (ROS (H2O2) production) | enzymatic activity, production of ROS (H2O2) (ROS (H2O2) production) [U/mg] | binding to HER2-negative cells [1] | binding to HER2-positive cells [2] | levels in HER2-positive xenografts compared to HER2-negative tissues (HER2-positive tumor)
CC[C@@]1(O)C(=O)OCc2c1cc1n(c2=O)Cc2cc3ccccc3nc2-1 [camptothecin] | disintegration of spheroids |  |  |  |  | 
zHER2:342(K4R/K7A/K27R/K49R/K50A/K58A)-APIT: fusion protein of lysine-deleted zHER2:342 mutant and APIT, SEQ ID NO. 5 |  | enzymatically active | 70 | not HER2 negative cells | bind to HER2 positive; also recorded: confirmed | 
zHER2-APIT: APIT fused with the zHER2 affibody, AlexaFluor680 (NIR) labelled for biodistribution |  |  |  |  |  | Significantly higher levels
zHER2:342-APIT: fusion protein of targeting sequence zHER2:342 and APIT, SEQ ID NO. 4 |  | remain enzymatically active | 70 | not HER2-negative cells | bind to HER2-positive; also recorded: confirmed | 
APIT: FAD-binding L-amino acid oxidase from Aplysia punctata, SEQ ID NO. 1 (protein, listed as Aplysia punctata, FAD cofactor) MDGVSRNRRQCNREVCGSTYDVAVVGAGPGGANSAYMLRDSGLDIAVFEYSDRVGGRLFTYQLPNTPDVNLEIGGMRFIEGAMHRLWRVISELGLTPKVFKEGFGKEGRQRFYLRGQSLTKKQVKSGDVPYDLSPEEKENQGNLVEYYLEKLTGLQLNGEPLKREVALKLTVPDGRFLYDLSFDEAMDLVASPEGKEFTRDTHVFTGEVTLDASAVSLFDDHLGEDYYGSEIYTLKEGLSSVPQGLLQAFLDAADSNEFYPNSHLKALRRKTNGQYVLYFEPTTSKDGQTTINYLEPLQVVCAQRVILAMPVYALNQLDWNQLRNDRATQAYAAVRPIPASKVFMTFDQPWWLENERKSWVTKSDALFSQMYDWQKSEASGDYILIASYADGLKAQYLRELKNQGEDIPGSDPGYNQVTEPLKDTILDHLTEAYGVERDSIPEPVTAASQFWTDYPFGCGWITWRAGFHFDDVISTMRRPSLKDEVYVVGADYSWGLISSWIEGALETSENVINDYFL |  |  | 80 |  |  | did not show differences
